Results taken from patent US7488590B2, “Modified peptides as therapeutic agents” (Amgen Inc., priority 1998, dated 2009).
“And” between values parts separate entries of the source, which are not always exact repeats. Identical values can stand only once. “Also recorded” adds a separate entry of the source. Where no end group is shown, it is not given here. Side-chain parts run from the residue outwards. maleimide = maleimide-containing PEG attached to the Cys side-chain thiol; PEG = not defined here

Legend:
human mpl receptor = target: T1, human mpl receptor (Homo sapiens, UniProt P40238); assay: TPO in vitro bioassay: mitogenic (cell-proliferation) assay in IL-3 dependent murine 32D cells transfected with human mpl receptor; assay type: cell-based
T1 construct: murine 32D cells transfected with the full-length c-Mpl; expressed in transfected cells; host or cells: IL-3 dependent clone of murine 32D cells
T1 sequence (P40238 26-635): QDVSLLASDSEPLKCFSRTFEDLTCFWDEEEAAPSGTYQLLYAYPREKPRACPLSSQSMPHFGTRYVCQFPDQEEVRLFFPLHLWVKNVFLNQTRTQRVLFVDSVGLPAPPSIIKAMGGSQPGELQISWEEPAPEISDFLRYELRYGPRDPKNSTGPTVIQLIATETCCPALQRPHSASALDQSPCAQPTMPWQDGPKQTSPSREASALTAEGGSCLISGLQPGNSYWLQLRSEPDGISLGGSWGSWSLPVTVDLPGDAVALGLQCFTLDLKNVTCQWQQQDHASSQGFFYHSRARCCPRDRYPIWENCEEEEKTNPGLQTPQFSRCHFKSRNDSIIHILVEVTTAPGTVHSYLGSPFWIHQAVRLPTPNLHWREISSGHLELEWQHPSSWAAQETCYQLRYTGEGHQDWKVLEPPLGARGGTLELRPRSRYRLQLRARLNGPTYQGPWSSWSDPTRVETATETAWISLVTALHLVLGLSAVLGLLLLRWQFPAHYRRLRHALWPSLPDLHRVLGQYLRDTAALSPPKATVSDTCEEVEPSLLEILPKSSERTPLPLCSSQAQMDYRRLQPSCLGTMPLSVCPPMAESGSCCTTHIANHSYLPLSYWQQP
Procedure: Bioactivity assay. The TPO in vitro bioassay is a mitogenic assay utilizing an IL-3 dependent clone of murine 32D cells that have been transfected with human mpl receptor. This assay is described in greater detail in WO 95/26746. Cells are maintained in MEM medium containing 10% Fetal Clone II and 1 ng/ml mIL-3. Prior to sample addition, cells are prepared by rinsing twice with growth medium lacking mIL-3. An extended twelve point TPO standard curve is prepared, ranging from […]. Four dilutions, estimated to fall within the linear portion of the standard curve, (100 to 125 pg/ml), are prepared for each sample and run in triplicate. A volume of 100 μl of each dilution of sample or standard is added to appropriate wells of a 96 well microtiter plate containing 10,000 cells/well. After forty-four hours at 37° C. and 10% CO2, MTS (a tetrazolium compound which is bioreduced by cells to a formazan) is added to each well. Approximately six hours later, the optical density is read on a plate reader at 490 nm. A dose response curve (log TPO concentration vs. O.D.-Background) is generated and linear regression analysis of points which fall in the linear portion of the standard curve is performed. Concentrations of unknown test samples are determined using the resulting linear equation and a correction for the dilution factor.
The resulting peptides are readily accessible by conventional solid phase peptide synthesis methods (Merrifield (1963), J. Amer. Chem. Soc. 85: 2149) with either Fmoc or t-Boc chemistry. […] This might be due to differences in the conditions used in the two assays. […] It is interesting to note that a wide range of length is tolerated by the linker. The optimal linker between tandem peptides with the selected TMP monomers apparently is composed of 8 glycines.

IL-1R = target: T2, IL-1R (Homo sapiens, UniProt P14778); assay: IL-1 Receptor Binding competition assay (IGEN system); settings: 0.4 nM biotin-IL-1R + 15 nM IL-1-TAG, competitor 3 uM to 1.5 pM
T2 sequence (P14778 18-569): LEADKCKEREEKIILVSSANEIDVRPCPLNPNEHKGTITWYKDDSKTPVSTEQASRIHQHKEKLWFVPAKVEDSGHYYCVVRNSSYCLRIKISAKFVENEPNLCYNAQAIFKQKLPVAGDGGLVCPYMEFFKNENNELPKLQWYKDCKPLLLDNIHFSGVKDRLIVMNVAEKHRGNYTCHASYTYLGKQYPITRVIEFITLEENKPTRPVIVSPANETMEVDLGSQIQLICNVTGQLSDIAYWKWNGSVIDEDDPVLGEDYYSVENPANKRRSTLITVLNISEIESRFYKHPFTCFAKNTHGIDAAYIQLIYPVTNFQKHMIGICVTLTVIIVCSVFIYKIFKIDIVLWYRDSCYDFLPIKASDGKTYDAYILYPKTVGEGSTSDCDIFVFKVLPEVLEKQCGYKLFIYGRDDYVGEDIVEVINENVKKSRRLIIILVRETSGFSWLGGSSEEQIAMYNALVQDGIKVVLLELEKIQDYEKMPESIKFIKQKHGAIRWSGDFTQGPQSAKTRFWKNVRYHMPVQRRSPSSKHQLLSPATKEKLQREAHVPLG
Procedure: Characterization of Fc-IL-1 antagonist peptide and IL-1 antagonist peptide-Fc activity. IL-1 Receptor Binding competition between IL-1β, IL-1RA and Fc-conjugated IL-1 peptide sequences was carried out using the IGEN system. Reactions contained 0.4 nM biotin-IL-1R+15 nM IL-1-TAG+3 uM competitor+20 ug/ml streptavidin-conjugate beads, where competitors were IL-1RA, Fc-IL-1 antagonist, IL-1 antagonist-Fc). Competition was assayed over a range of competitor concentrations from 3 uM to 1.5 pM.

[1] = TPO-dependent cell-proliferation assay, 32D cells transfected with c-Mpl

Substance | in vitro bioactivity (in words) (human mpl receptor; [1]) | also measured
21: TMP tandem repeat with potential glycosylation motif NGS in its 8-amino acid linker (IEGPTLRQWLAARAGGGNGSGGIEGPTLRQWLAARA; TPO-MIMETIC PEPTIDES) [compound 21] | maintained high bioactivity; also recorded: activity comparable to that of the —(G)8— linked analog | 
IEGPTLRQWLAARA (TMP) [reference compound] | relatively low biopotency | 
IL-1RA: competitor in the IL-1 receptor binding competition assay |  | EC50 (IL-1R): 2.65 nM; Ki (IL-1R): 1.41 nM
peptide 13: TMP tandem repeat with a linker composed of GPNG (IEGPTLRQWLAARAGPNGIEGPTLRQWLAARA; TPO-MIMETIC PEPTIDES) |  | increase in potency as compared to the monomer (human mpl receptor; TPO-dependent cell-proliferation assay, 32D cells transfected with c-Mpl, versus TMP monomer): about 100 fold; decrease in activity versus the equivalent GGGG-linked analog (human mpl receptor; cell-proliferation assay, versus tandem repeat with 4-Gly linker): > 10 fold and 10 fold
peptide 16: TMP tandem repeat in which the two Trp residues were replaced by Ala (IEGPTLRQWLAARAGGGGGGGGIEGPTLRQWLAARA; TPO-MIMETIC PEPTIDES) | inactive | 
peptide 19: PEGylated peptide (SEQ ID NO: 3); Lys side chain in linker modified by 5 kDa PEG (IEGPTLRQWLAARAGGGK(PEG 5 kDa)GGGGIEGPTLRQWLAARA) | even higher in vitro bioactivity as compared to their unpegylated counterparts | 
peptide 20: PEGylated peptide (SEQ ID NO: 4); Cys side chain in linker modified by maleimide-containing PEG (IEGPTLRQWLAARAGGGC([maleimide-PEG])GGGGIEGPTLRQWLAARA; reading uncertain) | even higher in vitro bioactivity as compared to their unpegylated counterparts | 
